Columns and labels:
Test in all cases: ELISA
[1] = molecular target: CSPG4 domain 1 fragment D1_(401-560) with C-terminal GFP tag (UniProt Q6UVK1)
[2] = molecular target: truncated wild-type TcdB (residues 550-1902) (Clostridioides difficile (VPI 10463 …, UniProt P18177 550-1902)); conditions: both partners purified
[3] = molecular target: full-length Clostridioides difficile Toxin B (TcdB), C-terminal 6XHis-tag (Clostridioides difficile (VPI 10463 …, UniProt P18177 1-2366)); conditions: both partners purified

| Molecule | binding result [3] | other results |
| --- | --- | --- |
| truncated TcdB (550-1902) [change] (from UniProt P18177 550-1902) (domain or fragment) |  | fold reduction of binding against wild type [1]: 1 fold |
| CSPG4 domain 1 fragment D1_(401-560) with C-terminal GFP tag (domain or fragment, UniProt Q6UVK1 401-560, looked up, not shown: GFP, C-terminal, kept) LAPEAWPAMELPEPCVPEPGLPPVFANFTQLLTISPLVVAEGGTAWLEWRHVQPTLDLMEAELRKSQVLFSVTRGARHGELELDIPGAQARKMFTLLDVVNRKARFIHDGSEDTSDQLVLEVSVTARVPMPSCLRRGQTYLLPIQVNPVNDPPHIIFPHG |  | binding result [2]: binds |
| D1_(401-560) E460A, C-terminal GFP tag (domain or fragment, not shown: GFP, C-terminal, kept) LAPEAWPAMELPEPCVPEPGLPPVFANFTQLLTISPLVVAEGGTAWLEWRHVQPTLDLMAAELRKSQVLFSVTRGARHGELELDIPGAQARKMFTLLDVVNRKARFIHDGSEDTSDQLVLEVSVTARVPMPSCLRRGQTYLLPIQVNPVNDPPHIIFPHG | binds |  |
| D1_(401-560) D457A, C-terminal GFP tag (domain or fragment, not shown: GFP, C-terminal, kept) LAPEAWPAMELPEPCVPEPGLPPVFANFTQLLTISPLVVAEGGTAWLEWRHVQPTLALMEAELRKSQVLFSVTRGARHGELELDIPGAQARKMFTLLDVVNRKARFIHDGSEDTSDQLVLEVSVTARVPMPSCLRRGQTYLLPIQVNPVNDPPHIIFPHG | binds |  |

From publication PMC8982864 (PLoS Biology, 2022)
